{
  "source": "patent US10143730B2",
  "about": "“Peptides and combination of peptides for use in immunotherapy against various cancers” (immatics biotechnologies GmbH, priority 2015, dated 2018)",
  "data": [
    {"target": "T1, HLA-A*02 (Homo sapiens, UniProt P04439, D140Y/D185E/D98H/E176V/E277Q/G131W/G231S/I119V/I121R/I166T/I218V/L300P/N151K/N90K/P208A/P217A/Q86G/Q94H/R138H/R169H)", "T1 construct": "made in house", "experiment": "MHC binding assay, UV-ligand exchange with beta2m ELISA (peptide exchange yield)", "settings": "binding to HLA-A*02", "source_text": "Candidate peptides for T cell based therapies according to the present invention were further tested for their MHC binding capacity (affinity). The individual peptide-MHC complexes were produced by UV-ligand exchange, where a UV-sensitive peptide is cleaved upon UV-irradiation, and exchanged with the peptide of interest as analyzed. Only peptide candidates that can effectively bind and stabilize the peptide-receptive MHC molecules prevent dissociation of the MHC complexes. To determine the yield of the exchange reaction, an ELISA was performed based on the detection of the light chain (β2m) of stabilized MHC complexes. The assay was performed as generally described in Rodenko et al. (Rodenko et al., 2006).\n96 well MAXISorp plates (NUNC) were coated over night with 2 ug/ml streptavidin in PBS at room temperature, washed 4× and blocked for 1h at 37° C. in 2% BSA containing blocking buffer. Refolded HLA-A*02:01/MLA-001 monomers served as standards, covering the range of 15-500 ng/ml. Peptide-MHC monomers of the UV-exchange reaction were diluted 100 fold in blocking buffer. Samples were incubated for 1h at 37° C., washed four times, incubated with 2 ug/ml HRP conjugated anti-32m for 1h at 37° C., washed again and detected with TMB solution that is stopped with […]. Absorption was measured at 450 nm. Candidate peptides that show a high exchange yield (preferably higher than 50%, most preferred higher than 75%) are generally preferred for a generation and production of antibodies or fragments thereof, and/or T cell receptors or fragments thereof, as they show sufficient avidity to the MHC molecules and prevent dissociation of the MHC complexes.", "values": [
      {"substance": "3 (KLEENGDLYL; listed as Homo sapiens) [compound 3]", "Peptide exchange (MHC class I binding score, peptide exchange yield)": "++++ (> = 75% = ++++)"},
      {"substance": "9 (FLVDGSYSI; listed as Homo sapiens) [compound 9]", "Peptide exchange (MHC class I binding score, peptide exchange yield)": "+++ (50%-75% = +++)"},
      {"substance": "10 (GIAGSLKTV; listed as Homo sapiens) [compound 10]", "Peptide exchange (MHC class I binding score, peptide exchange yield)": "+++ (50%-75% = +++)"},
      {"substance": "13 (ALMAMLVYV; listed as Homo sapiens) [compound 13]", "Peptide exchange (MHC class I binding score, peptide exchange yield)": "++ (20%-49% = ++)"},
      {"substance": "15 (YLDLSHNQL; listed as Homo sapiens) [compound 15]", "Peptide exchange (MHC class I binding score, peptide exchange yield)": "+++ (50%-75% = +++)"},
      {"substance": "16 (YTLDIPVLFGV; listed as Homo sapiens) [compound 16]", "Peptide exchange (MHC class I binding score, peptide exchange yield)": "++++ (> = 75% = ++++)"},
      {"substance": "19 (SISDNVWEV; listed as Homo sapiens) [compound 19]", "Peptide exchange (MHC class I binding score, peptide exchange yield)": "+++ (50%-75% = +++)"},
      {"substance": "21 (AIQDEIRSV; listed as Homo sapiens) [compound 21]", "Peptide exchange (MHC class I binding score, peptide exchange yield)": "+++ (50%-75% = +++)"},
      {"substance": "22 (FVDPNTQEKV; listed as Homo sapiens) [compound 22]", "Peptide exchange (MHC class I binding score, peptide exchange yield)": "++ (20%-49% = ++)"},
      {"substance": "24 (TLDEKVAEL; listed as Homo sapiens) [compound 24]", "Peptide exchange (MHC class I binding score, peptide exchange yield)": "+++ (50%-75% = +++)"},
      {"substance": "25 (TMDSVLVTV; listed as Homo sapiens) [compound 25]", "Peptide exchange (MHC class I binding score, peptide exchange yield)": "+++ (50%-75% = +++)"},
      {"substance": "28 (SLPNGKPVSV; listed as Homo sapiens) [compound 28]", "Peptide exchange (MHC class I binding score, peptide exchange yield)": "+++ (50%-75% = +++)"},
      {"substance": "30 (AMIEEVFEA; listed as Homo sapiens) [compound 30]", "Peptide exchange (MHC class I binding score, peptide exchange yield)": "++ (20%-49% = ++)"},
      {"substance": "32 (VQLDSIEDLEV; listed as Homo sapiens) [compound 32]", "Peptide exchange (MHC class I binding score, peptide exchange yield)": "+++ (50%-75% = +++)"},
      {"substance": "33 (YIKTELISV; listed as Homo sapiens) [compound 33]", "Peptide exchange (MHC class I binding score, peptide exchange yield)": "+++ (50%-75% = +++)"},
      {"substance": "34 (FLLATEVVTV; listed as Homo sapiens) [compound 34]", "Peptide exchange (MHC class I binding score, peptide exchange yield)": "++++ (> = 75% = ++++)"},
      {"substance": "36 (SLADTNSLAVV; listed as Homo sapiens) [compound 36]", "Peptide exchange (MHC class I binding score, peptide exchange yield)": "+++ (50%-75% = +++)"},
      {"substance": "37 (ILAPFSVDL; listed as Homo sapiens) [compound 37]", "Peptide exchange (MHC class I binding score, peptide exchange yield)": "+++ (50%-75% = +++)"},
      {"substance": "38 (FLGPRIIGL; listed as Homo sapiens) [compound 38]", "Peptide exchange (MHC class I binding score, peptide exchange yield)": "+++ (50%-75% = +++)"},
      {"substance": "39 (HLLEGSVGV; listed as Homo sapiens) [compound 39]", "Peptide exchange (MHC class I binding score, peptide exchange yield)": "+++ (50%-75% = +++)"},
      {"substance": "40 (VLIDPQWVLTA; listed as Homo sapiens) [compound 40]", "Peptide exchange (MHC class I binding score, peptide exchange yield)": "+++ (50%-75% = +++)"},
      {"substance": "41 (ALFENTPKA; listed as Homo sapiens) [compound 41]", "Peptide exchange (MHC class I binding score, peptide exchange yield)": "++ (20%-49% = ++)"},
      {"substance": "42 (LLDSVSRL; listed as Homo sapiens) [compound 42]", "Peptide exchange (MHC class I binding score, peptide exchange yield)": "+ (<20% = +)"},
      {"substance": "44 (SLFETAWEA; listed as Homo sapiens) [compound 44]", "Peptide exchange (MHC class I binding score, peptide exchange yield)": "+++ (50%-75% = +++)"},
      {"substance": "45 (SLTEVSLPL; listed as Homo sapiens) [compound 45]", "Peptide exchange (MHC class I binding score, peptide exchange yield)": "+++ (50%-75% = +++)"},
      {"substance": "46 (SQFPLPLAV; listed as Homo sapiens) [compound 46]", "Peptide exchange (MHC class I binding score, peptide exchange yield)": "++ (20%-49% = ++)"},
      {"substance": "47 (ALLERGELFV; listed as Homo sapiens) [compound 47]", "Peptide exchange (MHC class I binding score, peptide exchange yield)": "+++ (50%-75% = +++)"},
      {"substance": "48 (QVIEDSTGV; listed as Homo sapiens) [compound 48]", "Peptide exchange (MHC class I binding score, peptide exchange yield)": "++ (20%-49% = ++)"},
      {"substance": "49 (ALNIATHVL; listed as Homo sapiens) [compound 49]", "Peptide exchange (MHC class I binding score, peptide exchange yield)": "+++ (50%-75% = +++)"},
      {"substance": "50 (ILFHGVFYA; listed as Homo sapiens) [compound 50]", "Peptide exchange (MHC class I binding score, peptide exchange yield)": "+++ (50%-75% = +++)"},
      {"substance": "51 (LLFSRLCGA; listed as Homo sapiens) [compound 51]", "Peptide exchange (MHC class I binding score, peptide exchange yield)": "++++ (> = 75% = ++++)"},
      {"substance": "53 (KMVGLVVAI; listed as Homo sapiens) [compound 53]", "Peptide exchange (MHC class I binding score, peptide exchange yield)": "+++ (50%-75% = +++)"},
      {"substance": "54 (VLNPLITAV; listed as Homo sapiens) [compound 54]", "Peptide exchange (MHC class I binding score, peptide exchange yield)": "+++ (50%-75% = +++)"},
      {"substance": "55 (SLATKIVEA; listed as Homo sapiens) [compound 55]", "Peptide exchange (MHC class I binding score, peptide exchange yield)": "+++ (50%-75% = +++)"},
      {"substance": "56 (FLHDEKEGIYI; listed as Homo sapiens) [compound 56]", "Peptide exchange (MHC class I binding score, peptide exchange yield)": "+++ (50%-75% = +++)"},
      {"substance": "57 (TVFTDHMLTV; listed as Homo sapiens) [compound 57]", "Peptide exchange (MHC class I binding score, peptide exchange yield)": "++ (20%-49% = ++)"},
      {"substance": "58 (YLLPLLPAL; listed as Homo sapiens) [compound 58]", "Peptide exchange (MHC class I binding score, peptide exchange yield)": "+++ (50%-75% = +++)"},
      {"substance": "59 (KLLDPQEFTL; listed as Homo sapiens) [compound 59]", "Peptide exchange (MHC class I binding score, peptide exchange yield)": "+++ (50%-75% = +++)"},
      {"substance": "60 (ALFAPLVHL; listed as Homo sapiens) [compound 60]", "Peptide exchange (MHC class I binding score, peptide exchange yield)": "+++ (50%-75% = +++)"},
      {"substance": "61 (AIVKEIVNI; listed as Homo sapiens) [compound 61]", "Peptide exchange (MHC class I binding score, peptide exchange yield)": "++ (20%-49% = ++)"},
      {"substance": "62 (ALNPELVQA; listed as Homo sapiens) [compound 62]", "Peptide exchange (MHC class I binding score, peptide exchange yield)": "++ (20%-49% = ++)"},
      {"substance": "63 (SQIPAQPSV; listed as Homo sapiens) [compound 63]", "Peptide exchange (MHC class I binding score, peptide exchange yield)": "++ (20%-49% = ++)"},
      {"substance": "64 (SLFPDSLIV; listed as Homo sapiens) [compound 64]", "Peptide exchange (MHC class I binding score, peptide exchange yield)": "++ (20%-49% = ++)"},
      {"substance": "65 (SVVPDVRSV; listed as Homo sapiens) [compound 65]", "Peptide exchange (MHC class I binding score, peptide exchange yield)": "++ (20%-49% = ++)"},
      {"substance": "66 (KLIFSVEAV; listed as Homo sapiens) [compound 66]", "Peptide exchange (MHC class I binding score, peptide exchange yield)": "+++ (50%-75% = +++)"},
      {"substance": "67 (TLLQRLTEV; listed as Homo sapiens) [compound 67]", "Peptide exchange (MHC class I binding score, peptide exchange yield)": "+++ (50%-75% = +++)"},
      {"substance": "68 (SLSNRLYYL; listed as Homo sapiens) [compound 68]", "Peptide exchange (MHC class I binding score, peptide exchange yield)": "+++ (50%-75% = +++)"},
      {"substance": "69 (FLAVGLVDV; listed as Homo sapiens) [compound 69]", "Peptide exchange (MHC class I binding score, peptide exchange yield)": "+++ (50%-75% = +++)"},
      {"substance": "70 (LLLGDSALYL; listed as Homo sapiens) [compound 70]", "Peptide exchange (MHC class I binding score, peptide exchange yield)": "+++ (50%-75% = +++)"},
      {"substance": "71 (VLHSKFWVV; listed as Homo sapiens) [compound 71]", "Peptide exchange (MHC class I binding score, peptide exchange yield)": "+++ (50%-75% = +++)"},
      {"substance": "72 (FLTAINYLL; listed as Homo sapiens) [compound 72]", "Peptide exchange (MHC class I binding score, peptide exchange yield)": "+++ (50%-75% = +++)"},
      {"substance": "73 (YTLREVDTV; listed as Homo sapiens) [compound 73]", "Peptide exchange (MHC class I binding score, peptide exchange yield)": "++ (20%-49% = ++)"},
      {"substance": "74 (TLFGYSVVL; listed as Homo sapiens) [compound 74]", "Peptide exchange (MHC class I binding score, peptide exchange yield)": "+++ (50%-75% = +++)"},
      {"substance": "75 (AVIKFLELL; listed as Homo sapiens) [compound 75]", "Peptide exchange (MHC class I binding score, peptide exchange yield)": "+++ (50%-75% = +++)"},
      {"substance": "76 (AVGPVHNSV; listed as Homo sapiens) [compound 76]", "Peptide exchange (MHC class I binding score, peptide exchange yield)": "++ (20%-49% = ++)"},
      {"substance": "77 (TLIDEQDIPLV; listed as Homo sapiens) [compound 77]", "Peptide exchange (MHC class I binding score, peptide exchange yield)": "+++ (50%-75% = +++)"},
      {"substance": "78 (TVVTRLDEI; listed as Homo sapiens) [compound 78]", "Peptide exchange (MHC class I binding score, peptide exchange yield)": "++ (20%-49% = ++)"}
    ]}
  ]
}
